pKd: −log10 of the molar value.
Experiments:
[1] = target: PCV2 Rep WT (catalytically inactive) (Porcine circovirus 2 (PCV2)) (UniProt Q8BB16); assay: fluorescence polarization; details: 50 mM NaCl, 50 mM HEPES pH 8.0, 0.05% Tween-20, 1 mM DTT, 5 uM MnCl2 (SI legend: 50 uM Mn2+) or EDTA; 10 nM FAM substrate, protein from 1 uM in 1:2 dilutions …
[2] = target: PCV2 Rep WT (catalytically inactive) (Porcine circovirus 2 (PCV2)) (UniProt Q8BB16); assay: fluorescence polarization; details: 50 mM NaCl, 50 mM HEPES pH 8.0, 0.05% Tween-20, 1 mM DTT, 5 uM MnCl2 (SI legend: 50 uM Mn2+) or EDTA; 10 nM FAM substrate, protein from 1 uM in 1:2 dilutions …; remark: listed apart in the source

Chain of UniProt Q8BB16 (Q8BB16 whole entry): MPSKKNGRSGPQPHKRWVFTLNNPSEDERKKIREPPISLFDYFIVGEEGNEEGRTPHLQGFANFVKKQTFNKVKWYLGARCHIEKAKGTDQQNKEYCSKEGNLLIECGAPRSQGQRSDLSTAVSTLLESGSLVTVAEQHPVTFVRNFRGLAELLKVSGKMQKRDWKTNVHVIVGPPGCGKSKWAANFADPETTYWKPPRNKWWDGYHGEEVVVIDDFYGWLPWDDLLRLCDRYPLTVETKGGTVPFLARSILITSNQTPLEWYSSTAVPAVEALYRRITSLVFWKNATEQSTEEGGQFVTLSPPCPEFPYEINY

Sequence | pKd [1] | pKd [2]
CGTAAATATTACCGTC [HUHDNA_FAM] | 7.52 | 8.22
CGUAAAAUAUUACCGUC [HUHRNA_FAM] | 7.00 | 7.05

Source: article PMC13231165
